Data reported in the DeepSol protein solubility set.

Assay: soluble on expression in E. coli; label from the status in PepcDB or PDB records
With “FLNNKHREKGLKAEEEACGFLKSLGFEMVERNFFSQFGEIDIIALKKGVLHFIEVKSGENFDPIYAITPSKLKKMIKTIRCYLSQKDPN” the “soluble on expression in E. coli” value was “not soluble”. In the case of “NAVNWGMREYKIYPYELLLVTTRGRNRLPKDVDRTRLERHLSQEEFYQVFGMTISEFDRLALWKRNELKKQARLF”, the “soluble on expression in E. coli” value is reported as “soluble”. In the case of “GPGSMLGSPLFPVAMDSFFDEDECERLGVWEDPRCLRAAEYTQCVATIRALIEQYGVAAAPLHTVKDAAQFLRFEASSAVSHPPMRESAVSYTVKSYGEASKKCVSEANNIVLSSLCMNDACVAGNAADGTDVALEKVFIVCEGFLIFGYPELCNMFDFFVFVHSDNETACLRRFFRGSRRKKRKPQGGNCDRILRMRTSRVNAELWSSEGAAANKTLSPSFSSVLPHLKYMPPQPSSPNDYQGFWLQSEYKELPPPMPFGMSGLKAPPYDWLEVKDLQYVKQMLHQWANASCVDDVEGVLGRYFEFRYWFYYEVLFYHYQLRGISEENVTTACQAKGTTKTSPSQSVLHIKNDASVSCVMLDSQLLALAQQVSGDLINGEGEVRLLLGWN”, the “soluble on expression in E. coli” value is reported as “not soluble”. For “MSLSQLREIQQQFMDYLLASAAQTPIPETIEKPFSDKVAEQGGVGRDIRMQIYANAYRIRLTEVLDTDHEILGLYLGDDLFARMANGYIAHQPSRFTSLRQFADALPGYLASDAFFSQYPIISDIARFERRLLNAFDAKDEQRASFAALQSLPADAWPYCQLRFHPSVQLFECASNAVETWQALKHQQVPPAPDYQGKHAWLLWRGENRLTEFISLAEYQLALIQGFIHGANIAEQCELMLNFFTPEEAMQQLLQALQAWFQLGLILSVQPNEGHHHHHH”, the “soluble on expression in E. coli” value was “not soluble”. With “MQPTPSEYARTPVRIEMQRSKERNSMVYKEMYNDAQRKYSEALDRISKLTDAYLREKAEVENFIKIKDREVEMSKKNANEKLLKDFLPVLDSIDAAIQAEKDNNLIRIRDQMLGVLSRYGLKPIKAEGSKFDPYLHEVVGVTADGEDGMVKYEVQRGYTLNDGVLRTSKVIVVKR” the “soluble on expression in E. coli” value was “not soluble”. For “MAHDVEVKNAVRGAYVFDRLSLEMAAEKAGVSFGTARRWKANAESNGDNWDKARDVHVMASGGIENIAQGLLTGFLIKYRKLMSELEENTEMATAAKVEALSALADSFAKMTASSKKLLPETSAMATAMRAIEMMANIVKSKKPHLLPDFLEMLDDLEVQFKKEFK”, the “soluble on expression in E. coli” value was “not soluble”. With “MSAEVTLHDNIHYDLSADCQHCFGLCCVALPYAKSADFAFDKDGGTPCRNLQSNYQCSIHKDLREKGFRGCSAYECFGAGQKVSQITYEGKDWRNSPETANQMFDVFPIMQQLHEMLWYLHEALSIDIAKPIHSELRTTFEKIERLTRLSKERLLTLQVDEHRAEVNEWLLKTSELVRAQARHPKLPKKVSRGSVLIGAKLKGLDLRGANLRGALLIAADLRNADLRMTDFIGADMRDADLSGADLTGSIFLTQAQVNAANGDSNTKLPLSVRTPAHWKLEHHHHHH” the “soluble on expression in E. coli” value was “not soluble”. With “MKVIKGLTAGLIFLFLCACGGQQIKDPLNYEVEPFTFQNQDGKNVSLESLKGEVWLADFIFTNCETICPPMTAHMTDLQKKLKAGNIDVRIISFSVDPENDKPKQLKKFAANYPLSFDNWDFLTGYSQSEIEEFALKSFKAIVKKPEGEDQVIHQSSFYLVGPDGKVLKDYNGVENTPYDDIISDVKSASTLK” the “soluble on expression in E. coli” value was “soluble”. With “MEDGRTSDKVLEKIQEKIFSGEWKPGQKIMSETKLAEDLNVSRVSVREAIEKLAAFNIVSKKKGGGTFINDLGPSVYLNSLLPMLILNRDNYLEILEFRLITEPESAKLCAERCDDELIISLEKIYDNMKNYKDDIQKFTKEDLNFHTKIAEGTKNSLIIKINELLMNILEYHQRGLYETLGPKGGICEHKFILDAIKNRDSELAFIYSRRHAERTINDLKKLQT” the “soluble on expression in E. coli” value was “not soluble”. For “MSRGPEEVNRLTESTYRNVMEQFNPGLRNLINLGKNYEKAVNAMILAGKAYYDGVAKIGEIATGSPVSTELGHVLIEISSTHKKLNESLDENFKKFHKEIIHELEKKIELDVKYMNATLKRYQTEHKNKLESLEKSQAELKKIRRKSQGSRNALKYEHKEIEYVETVTSRQSEIQKFIADGCKEALLEEKRRFCFLVDKHCGFANHIHYYHLQSAELLNSKLPRWQETCVDAIKVPEKIMNMIEEIKTPASTPVSGTPQASPMIERSNVVRKDYDTLSKCSPKMPPAPSGRAYTSPLIDMFNNPATAAPNSQRVNNSTGTSEDPSLQRSVSVATGLNMMKKQKVKTIFPHTAGSNKTLLSFAQGDVITLLIPEEKDGWLYGEHDVSKARGWFPSSYTKLLEENETEAVTVPTPSPTPVRSISTVNLSENSSVVIPPPDYLECLSMGAAADRRADSARTTSTFKAPASKPETAAPNDANGTAKPPFLSGENPFATVKLRPTVTNDRSAPIIR”, the “soluble on expression in E. coli” value was “soluble”. In the case of “MKLTVKRSVFLQELQTVQRAISSKTTIPILTGVKIVLSEDGLSLTGSNADISIESFLSKDDEKAQMTIERTGSIVLQSRFFGEIIRKLPEDMFTMEVLDNNQVAITSGKADFTVNGLDADNYPHLPVIDTQNQMKLPVHLLTKIISETGFAVSMHESRPILTGVHFILENQKLLAVATDSHRLSQRVIPTEQAVEDFNIVIPGKSLTELSRSLTNEEEMVEISIMENQVLFKTETMYFYSRLLEGNYPDTNRLIPTSHNTQIEFYVPELLSAIERASLLSHEGRNNIVRLSISPDSVVLYGNSPEIGKVEEALNYENVSGEALDISFNPDYMKDALRAFGDMNITVKFLSPIRPFTLEPTETELDFIQLITPVRTN”, the “soluble on expression in E. coli” value is reported as “not soluble”. With “MTEMTKPFLIVIVGPTASGKTELSIEVAKKFNGEIISGDSMQVYQGMDIGTAKVTTEEMEGIPHYMIDILPPDASFSAYEFKKRAEKYIKDITRRGKVPIIAGGTGLYIQSLLYNYAFEDESISEDKMKQVKLKLKELEHLNNNKLHEYLASFDKESAKDIHPNNRKRVLRAIEYYLKTKKLLSSRKKVQQFTENYDTLLIGIEMSRETLYLRINKRVDIMLGHGLFNEVQHLVEQGFEASQSMQAIGYKELVPVIKGNISMENAVEKLKQHSRQYAKRQLTWFKNKMNVHWLNKERMSLQMMLDEITTQINKRSSNHDCKRKHPRPSTRELLEHHHHHH” the “soluble on expression in E. coli” value was “soluble”. With “MNRLMTLTGAGLALAFSVSIAQAQVVVSSKIDTEGGVLGNIILAVLNQNKIETTDRIQLGATPVVRKAITAGEIDIYPEYTGNAAFFFSKADDPLWKDAAKGYEEAKTLDYDANKIVWLAPSPANNTWAIALRKDVADKNNLKTLSDFGKYVAGGGTVVLAASSEFVNSAAALPAFQTTYGFTMKPDQLITLSGGDTAATIAAAANQTNNANAAMVYGTDGGIAPSGLVVLEDDKHVQPVYQPAPIIREEVLKKHPNIEELLKPVFEKLDLATLQDLNARVQVGGEQAKTVAMDFLTKNGFAK” the “soluble on expression in E. coli” value was “not soluble”. For “MSLSYLTEEKLTIVGAAGMIGSNMAQTAAMMRLTPNLCLYDPFAVGLEGVAEEIRHCGFEGLNLTFTSDIKEALTDAKYIVSSGGAPRKEGMTREDLLKGNAEIAAQLGKDIKSYCPDCKHVIIIFNPADITGLVTLIYSGLKPSQVTTLAGLDSTRLQSELAKHFGIKQSLVTNTRTYGGHGEQMAVFASTAKVNGTPLTDLIGTDKLTNEQWAELKQRVVKGGANIIKLRGRSSFQSPSYVSIEMIRAAMGGEAFRWPAGCYVNVPGFEHIMMAMETTITKDGVKHSDINQLGNEAERAALKESYSHLAKLRDEVIAMGIIPAIADWKTVNPNEGHHHHHH”, the “soluble on expression in E. coli” value was “soluble”. With “MMPLSTPDFASIRDTLLRDLQNLRADADIAPDSDYFVRASSVASAVEGLYQHQSWIARQIFPDTADSEYLEQHARLRGIVRKPAAAASGTLRISGNAGAVVSGSLQLRIGEQLYATPAANPDGSPYAARLDANGQAELPIFASQAGAAGNQPESLPVELMQAPSGVSAKALLLSMRNGVDVEDDAALLDRLLELIRRPPAGGNRHDYRRWAMEVKGVSAAYVYPLRRGLGTVDVVITANGDLPSQEILNNVQAHIEDLRPVTAKSCLVLAPTPRPVDIDVALNLGGANLDAFTPLLQQTLQAYFAGLAPGERLVKSRIEALISDLPGVQDRQLNSPAGNVDPVSDPTKVEWLRLGKLTVGLLKLEHHHHHH” the “soluble on expression in E. coli” value was “soluble”. With “MSLKGIVEKSVGDLETLAFDGRTYIEYLNAVTESEKALQSNHFELSLRTEATQGLVLWIGKVGERADYMALAIVDGHLQLSYDLGSQPVVLRSTVKVNTNRWLRVRAHREHREGSLQVGNEAQVTGSSPLGATQLDTDGALWLGGMQKLPVGQALPKAYGTGFVGCLRDVVVGHRQLHLLEDAVTKPELRPCPTEGHHHHHH” the “soluble on expression in E. coli” value was “soluble”. In the case of “MGSDKIHHHHHHMKPHTLLIVDDDDTVAEMLELVLRGAGYEVRRAASGEEALQQIYKNLPDALICDVLLPGIDGYTLCKRVRQHPLTKTLPILMLTAQGDISAKIAGFEAGANDYLAKPFEPQELVYRVKNILARTTIETPTTPVQRGKVITVFGAKGGVGKTTIAVSVALALRLRSRRRVVIVDADLTFGDVAVHLNIAPTRSIIDIVRSGDEIEQEMVKQVLLSHPSGLQALLAPPRPEEAELVSAEHMTRILDLLAVNADYVVVDCQTSYDDRTLSVFDRTDHVLLVITPEIGPLKNTSLFLSLANQLGIDPRAISIVLNRSNSGVGIGVNEIERVLRRKINYHVMSGGQPVVTAVNRGTPLILEQPKHPFVQQILYLADQMMKQLDTNQNVQTDTVTR”, the “soluble on expression in E. coli” value is reported as “not soluble”. With “MSLVHQLLAQMENGYMKIIKENLVGIYLHGSYAFGTYCHSVSDLDVLIVVYEKLTIDEKKQLLDYTINILDKWAPKKGIEFHVLQLKDTINLSYPIPFDLHFSPIHRSRYLTNKNKYIEDMMGYDEDLVAHLMITKLYGKVLVGKPIDSVFGWIDQKKYFESIVADVKEAKKEIVQQPMYVILNMCRVMAFKQENKILSKRAGGEWGLVHFPTNHHSLIQLALKEYRGETVLLEQYNDSELNDFADIMLSLLFKEGHHHHHH” the “soluble on expression in E. coli” value was “not soluble”. For “AQPKETILSIKDLVVKESRGLDAVKNLSLDVRAGEVVGIAGIDGNGQTELIQALAGLTKVENGSIHLNEKEITNRKPREITEMGVAHVPEDRHKYGLVLEMTLAENIGLQTYYQKPYSSTGILNYRMINKHARELIEEYDVRTPNELVPARALSGGNQQKAIIAREVDRDPDLLIVSQPTRGLDVGAIEYIHRRLIEQRDKNKAVLLVSFELDEILNVSDRIAVIHAGEIVGIVDPKETTENELGLLMAGYSLEEARAELSKVEAGETVE”, the “soluble on expression in E. coli” value was “not soluble”. With “MAVSLSKGGNVSLTKEAPGLTAVTVGLGWDVRTTTGTDFDLDASAIAVNPTGKVYSDAHFVFFNNKQTPDQTIVHTGDNRTGEGAGDDEAINVNLAGLPADVDKIVFPVSIYDAENRSQNFGQVRNAYIRIVNQAGGAEIARYDLSEDAATETAMVFGELYRNGAEWKFRAVGQGYASGLVGIAQDFGVNV” the “soluble on expression in E. coli” value was “not soluble”. For “KVLTIKSCNIHSGIGIRPHAQIELEYQGKIHKEISEGDGGYDAFMNALTKITNRLGISIPKLIDYEVRIPPGGKTDALVETRITWNKSLDLEEDQTFKTMGVHPDQTVAAVHATEKMLNQILQPWQI”, the “soluble on expression in E. coli” value was “soluble”. For “MPIITKNTDTTCQTPPLLSIICPAYNQEAFVAQALDGFLSQQTRFNYEILINDDASTDGTARIIAQYAERHPTIIRAFYQQVNQYSQGLPCVPDLFAEARGRYIAYCEADDYWTDPRKLQLQVDFLESHPDYVITYHDAVAFDENGEYGVQLQGHLRADATALELQQARRLSTLTTCFRNVFSTMPPELNIRVAPLNDMCWWSLLGAHGKGKFMADIKPAAYRLHAGGVFSMRSDKRKLHMNLQTCSSLANYYNLQGNQALYEYFLMQTVCLSLAALTPSHKLQTLWQVASNVVVNLGRRLLPTTGKAHVQ”, the “soluble on expression in E. coli” value was “not soluble”. In the case of “MKTFPVSIVTPDGPVYEKEVEMVSVKAESGEMGILPGHIPTVAPLKISAVRLKNGGHTDYVAVSGGFIEVRPDKVTVLSSSAEEANHIDIHRANEAKRRAEQRMQDKQAHVDFKRAEMALQRAVNRLNVSDMK”, the “soluble on expression in E. coli” value is reported as “not soluble”. With “GSQVQLVESGGGLVQAGGSLRLSCAASGYAYTYIYMGWFRQAPGKEREGVAAMDSGGGGTLYADSVKGRMTISRDKGKNTVYLQMDSMKPEDTATYYCAAGGYELRDRTYGQWGQGTQVTVSS” the “soluble on expression in E. coli” value was “soluble”.
